Laboratory results published in publication PMC9482650, “Quantitative fragmentomics allow affinity mapping of interactomes” (Nature Communications, 2022).

Key:
Assay in all cases: holdup assay
Design in all cases: key: below the threshold = too weak to quantify, mostly under pKd 3.1 to 4
Conditions in all cases: plain residues with an end cap or a label only (N-terminal biotin on a linker: ttds)
Inadl_8, Q8NI35 = biological target: Inadl_8, Q8NI35
GORASP1, Q9BQQ3 = biological target: GORASP1, Q9BQQ3
Chain of GORASP1, Q9BQQ3 (Q9BQQ3 1-208): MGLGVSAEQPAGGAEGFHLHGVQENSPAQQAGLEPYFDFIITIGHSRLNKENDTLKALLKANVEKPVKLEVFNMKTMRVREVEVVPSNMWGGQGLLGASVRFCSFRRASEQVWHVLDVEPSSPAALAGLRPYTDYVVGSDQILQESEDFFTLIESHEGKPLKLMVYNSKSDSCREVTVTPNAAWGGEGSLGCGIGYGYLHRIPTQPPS

DFNB31_3, Q9P202 = biological target: T1, DFNB31_3, Q9P202
T1 sequence (Q9P202 811-907, limits assumed, looked up): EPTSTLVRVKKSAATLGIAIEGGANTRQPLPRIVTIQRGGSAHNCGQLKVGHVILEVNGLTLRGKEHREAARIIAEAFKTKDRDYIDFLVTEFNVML

MPP2, Q14168 = biological target: T2, MPP2, Q14168
T2 sequence (Q14168 180-250, limits assumed, looked up): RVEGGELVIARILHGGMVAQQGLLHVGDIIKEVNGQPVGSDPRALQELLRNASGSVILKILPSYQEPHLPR

Inadl_5, Q8NI35 = biological target: Inadl_5, Q8NI35
Chain of Inadl_5, Q8NI35 (Q8NI35 673-780): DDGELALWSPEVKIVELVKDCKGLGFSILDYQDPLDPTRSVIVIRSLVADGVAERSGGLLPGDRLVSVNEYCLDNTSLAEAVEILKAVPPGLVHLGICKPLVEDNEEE

MAST1, Q9Y2H9 = biological target: MAST1, Q9Y2H9
Chain of MAST1, Q9Y2H9 (Q9Y2H9 962-1065): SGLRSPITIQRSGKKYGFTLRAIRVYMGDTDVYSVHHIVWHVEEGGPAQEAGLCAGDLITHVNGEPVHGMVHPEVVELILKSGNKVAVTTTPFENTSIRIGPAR

LIN7C, Q9NUP9 = biological target: T3, LIN7C, Q9NUP9
T3 sequence (Q9NUP9 88-185, limits assumed, looked up): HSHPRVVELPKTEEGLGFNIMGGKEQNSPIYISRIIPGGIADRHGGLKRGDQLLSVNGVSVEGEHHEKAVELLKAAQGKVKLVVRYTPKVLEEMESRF

PTPN3, P26045 = biological target: PTPN3, P26045
Chain of PTPN3, P26045 (P26045 505-587): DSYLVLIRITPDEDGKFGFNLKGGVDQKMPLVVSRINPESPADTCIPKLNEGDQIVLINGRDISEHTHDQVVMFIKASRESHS

PTPN13_1, Q12923 = biological target: T4, PTPN13_1, Q12923
T4 sequence (Q12923 1088-1188, limits assumed, looked up): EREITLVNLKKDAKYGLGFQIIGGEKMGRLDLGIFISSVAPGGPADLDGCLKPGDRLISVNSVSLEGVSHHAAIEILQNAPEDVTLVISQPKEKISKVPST

PICK1, Q9NRD5 = biological target: PICK1, Q9NRD5
Chain of PICK1, Q9NRD5 (Q9NRD5 17-115): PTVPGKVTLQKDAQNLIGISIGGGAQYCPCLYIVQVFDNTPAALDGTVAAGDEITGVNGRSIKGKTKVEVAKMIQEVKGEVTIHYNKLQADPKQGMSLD

Inadl_9, Q8NI35 = biological target: Inadl_9, Q8NI35
Chain of Inadl_9, Q8NI35 (Q8NI35 1530-1615): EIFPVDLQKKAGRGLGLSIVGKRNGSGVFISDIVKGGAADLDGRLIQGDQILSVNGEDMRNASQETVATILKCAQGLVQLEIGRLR

MAGI2_6, Q86UL8 = biological target: MAGI2_6, Q86UL8
Chain of MAGI2_6, Q86UL8 (Q86UL8 1141-1229): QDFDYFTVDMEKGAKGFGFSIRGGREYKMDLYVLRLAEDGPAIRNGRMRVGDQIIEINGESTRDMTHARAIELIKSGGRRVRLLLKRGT

APBA2_1, Q99767 = biological target: T5, APBA2_1, Q99767
T5 sequence (Q99767 563-664, limits assumed, looked up): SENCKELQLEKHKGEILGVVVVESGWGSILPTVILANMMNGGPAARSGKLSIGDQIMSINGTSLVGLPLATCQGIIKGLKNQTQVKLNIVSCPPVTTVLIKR

DLG2_2, Q15700 = biological target: DLG2_2, Q15700
Chain of DLG2_2, Q15700 (Q15700 189-283): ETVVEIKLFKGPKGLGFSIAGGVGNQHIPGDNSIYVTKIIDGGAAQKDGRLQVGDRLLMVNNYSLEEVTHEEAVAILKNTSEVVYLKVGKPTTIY

MAGI1_2, Q96QZ7 = biological target: MAGI1_2, Q96QZ7
Chain of MAGI1_2, Q96QZ7 (Q96QZ7 456-580): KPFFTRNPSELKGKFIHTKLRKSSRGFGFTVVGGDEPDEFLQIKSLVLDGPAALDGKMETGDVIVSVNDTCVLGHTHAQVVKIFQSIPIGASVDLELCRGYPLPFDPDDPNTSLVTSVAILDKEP

GOPC, Q9HD26 = biological target: GOPC, Q9HD26
FRMPD2_3, Q68DX3 = biological target: FRMPD2_3, Q68DX3
Chain of FRMPD2_3, Q68DX3 (Q68DX3 1073-1166): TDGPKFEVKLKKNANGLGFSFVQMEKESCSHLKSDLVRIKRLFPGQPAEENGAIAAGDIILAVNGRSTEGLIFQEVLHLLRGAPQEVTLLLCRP

TJP1_3, Q07157 = biological target: TJP1_3, Q07157
Chain of TJP1_3, Q07157 (Q07157 416-512): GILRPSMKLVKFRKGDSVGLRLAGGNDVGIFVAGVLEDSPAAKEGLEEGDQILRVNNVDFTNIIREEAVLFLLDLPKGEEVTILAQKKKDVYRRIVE

SNTA1, Q13424 = biological target: T6, SNTA1, Q13424
T6 sequence (Q13424 82-180, limits assumed, looked up): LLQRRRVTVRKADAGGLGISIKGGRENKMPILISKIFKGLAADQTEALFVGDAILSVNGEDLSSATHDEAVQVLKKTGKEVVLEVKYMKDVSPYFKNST

DLG3_1, Q92796 = biological target: T7, DLG3_1, Q92796
T7 sequence (Q92796 125-227, limits assumed, looked up): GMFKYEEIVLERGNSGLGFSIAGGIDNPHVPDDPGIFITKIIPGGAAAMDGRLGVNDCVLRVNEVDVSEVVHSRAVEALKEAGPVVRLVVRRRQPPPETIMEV

NOS1, P29475 = biological target: NOS1, P29475
Chain of NOS1, P29475 (P29475 9-101): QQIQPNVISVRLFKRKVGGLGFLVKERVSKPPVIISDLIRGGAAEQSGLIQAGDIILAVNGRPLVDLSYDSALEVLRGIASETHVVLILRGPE

LNX2_2, Q8N448 = biological target: T8, LNX2_2, Q8N448
T8 sequence (Q8N448 334-432, limits assumed, looked up): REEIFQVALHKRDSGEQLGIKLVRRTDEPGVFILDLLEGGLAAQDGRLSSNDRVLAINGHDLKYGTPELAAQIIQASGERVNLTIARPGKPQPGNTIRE

DLG1_1, Q12959 = biological target: DLG1_1, Q12959
DFNB31_1, Q9P202 = biological target: T9, DFNB31_1, Q9P202
T9 sequence (Q9P202 135-233, limits assumed, looked up): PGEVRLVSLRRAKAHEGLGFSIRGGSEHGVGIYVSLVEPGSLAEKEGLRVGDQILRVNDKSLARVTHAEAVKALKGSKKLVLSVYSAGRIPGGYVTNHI

MAGI2_2, Q86UL8 = biological target: MAGI2_2, Q86UL8
Chain of MAGI2_2, Q86UL8 (Q86UL8 410-522): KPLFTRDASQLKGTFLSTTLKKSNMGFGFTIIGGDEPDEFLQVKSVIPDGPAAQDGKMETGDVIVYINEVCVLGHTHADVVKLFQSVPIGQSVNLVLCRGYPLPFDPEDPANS

LDB3, O75112 = biological target: LDB3, O75112
Chain of LDB3, O75112 (O75112 1-94): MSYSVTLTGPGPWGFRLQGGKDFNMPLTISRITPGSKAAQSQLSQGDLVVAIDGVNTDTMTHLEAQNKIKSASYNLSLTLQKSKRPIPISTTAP

HTRA2, O43464 = biological target: HTRA2, O43464
Chain of HTRA2, O43464 (O43464 355-458): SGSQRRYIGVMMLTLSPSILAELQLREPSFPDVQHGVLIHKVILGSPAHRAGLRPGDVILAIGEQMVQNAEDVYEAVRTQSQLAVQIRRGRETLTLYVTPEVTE

MPP6, Q9NZW5 = biological target: T10, MPP6, Q9NZW5
T10 sequence (Q9NZW5 125-219, limits assumed, looked up): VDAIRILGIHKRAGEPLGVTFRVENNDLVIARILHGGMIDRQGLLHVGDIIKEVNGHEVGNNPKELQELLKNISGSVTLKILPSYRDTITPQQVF

CASK, O14936 = biological target: CASK, O14936
Chain of CASK, O14936 (O14936 487-570): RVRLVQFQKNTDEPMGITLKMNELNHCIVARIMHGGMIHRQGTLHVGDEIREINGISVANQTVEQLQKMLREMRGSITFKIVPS

Chain of Inadl_8, Q8NI35 (Q8NI35 1425-1530): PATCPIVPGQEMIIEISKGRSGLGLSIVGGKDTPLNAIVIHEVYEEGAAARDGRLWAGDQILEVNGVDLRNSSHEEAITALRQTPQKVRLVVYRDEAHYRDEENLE

pKd (Inadl_8, Q8NI35)	pKd (GORASP1, Q9BQQ3)	pKd (DFNB31_3, Q9P202)	pKd (MPP2, Q14168)	pKd (Inadl_5, Q8NI35)	pKd (MAST1, Q9Y2H9)	pKd (LIN7C, Q9NUP9)	pKd (PTPN3, P26045)	pKd (PTPN13_1, Q12923)	pKd (PICK1, Q9NRD5)	pKd (Inadl_9, Q8NI35)	pKd (MAGI2_6, Q86UL8)	pKd (APBA2_1, Q99767)	pKd (DLG2_2, Q15700)	pKd (MAGI1_2, Q96QZ7)	pKd (GOPC, Q9HD26)	pKd (FRMPD2_3, Q68DX3)	pKd (TJP1_3, Q07157)	pKd (SNTA1, Q13424)	pKd (DLG3_1, Q92796)	also measured	Binder
below the threshold	below the threshold	below the threshold	below the threshold	below the threshold	below the threshold	below the threshold	4.65	below the threshold	below the threshold	below the threshold	below the threshold	below the threshold	3.96	4	below the threshold	below the threshold	below the threshold	3.97	below the threshold	pKd (NOS1, P29475): 3.53; pKd (LNX2_2, Q8N448): below the threshold; pKd (DLG1_1, Q12959): 4.04; pKd (DFNB31_1, Q9P202): 4.02; pKd (MAGI2_2, Q86UL8): 4.21; pKd (LDB3, O75112): below the threshold; pKd (HTRA2, O43464): below the threshold; pKd (MPP6, Q9NZW5): below the threshold; pKd (CASK, O14936): below the threshold	QRPYRRESEI [KCNJ12, Q14500]
below the threshold	below the threshold	below the threshold	below the threshold	below the threshold	4.33	3.72	4.69	below the threshold	below the threshold	below the threshold	4.39	below the threshold	4.88	3.65	below the threshold	below the threshold	below the threshold	4.7	4.13	pKd (NOS1, P29475): 3.88; pKd (LNX2_2, Q8N448): 4.13; pKd (DLG1_1, Q12959): 4.76; pKd (DFNB31_1, Q9P202): 3.91; pKd (MAGI2_2, Q86UL8): 3.72; pKd (LDB3, O75112): below the threshold; pKd (HTRA2, O43464): below the threshold; pKd (MPP6, Q9NZW5): below the threshold; pKd (CASK, O14936): below the threshold	GRLLGLETNV [ARHGEF26, Q96DR7]
